# Assay results from patent US20150266963A1 (ARGEN X B V, published 2015).
# T1: recombinant human CD70 (Flag-TNC-CD70) (human, UniProt P32970 39-193)
# T1 construct: extracellular domain; Captured by anti-Flag mAb in ELISA; as 'recombinant human CD70' immobilised on Biacore CM5 chips; TNC is for trimerisation; also called recombinant CD70; human recombinant CD70; not shown: Flag tag and TNC trimerisation domain
# T1 sequence (looked up): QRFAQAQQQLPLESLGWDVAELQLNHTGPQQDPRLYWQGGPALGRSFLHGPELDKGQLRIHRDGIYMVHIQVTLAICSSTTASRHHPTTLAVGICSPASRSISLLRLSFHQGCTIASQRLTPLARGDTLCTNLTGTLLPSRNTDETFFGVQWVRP
# T2: human CD70 expressed on the surface of cells (human, UniProt P32970 1-193)
# T2 sequence (looked up): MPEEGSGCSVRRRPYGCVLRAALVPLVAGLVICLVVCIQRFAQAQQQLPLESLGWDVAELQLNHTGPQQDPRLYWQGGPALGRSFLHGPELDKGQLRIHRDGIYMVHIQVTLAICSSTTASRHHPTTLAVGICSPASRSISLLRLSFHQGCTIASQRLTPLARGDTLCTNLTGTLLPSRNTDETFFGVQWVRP
# Assays:
# [1] = target: T1, recombinant human CD70 (Flag-TNC-CD70); test: inhibition ELISA; Flag-TNC-CD70 captured by anti-Flag mAb; competitor CD27-Fc
# Experimental: (§1) From selected phage transfected into TG1, individual colonies were picked randomly for growth in 96 well plates. After IPTG induction according to standard protocols periplasmic fractions (penis) containing Fabs were prepared. […] In this assay, Flag-TNC-CD70 is captured by an anti-Flag mAb and binding of CD27-Fc is detected via a biotinylated anti-CD27 mAb and strep-HRP in the absence or presence of CD70 Fabs (FIGS. 2 and 3) or CD70 mAbs (FIG. 4). In FIG. 2B it can be seen that 27B3, which has an identical VH as 9D1, but contains a somewhat different light chain, seems to block binding of CD27 to CD70 more efficiently, which was in line with the better off rate of this Fab as measured on Biacore (data not shown). Table 3 indicates the blocking potency (expressed as IC50) for the various llama-human chimeric mAbs tested in the CD70 inhibition ELISA. […] FIG. 3 is a composite of an experiment testing llama CD70 Fabs for blocking activity (in the inhibition ELISA, see white bars) and for CD70 binding (binding ELISA, black bars). For the binding ELISA, Flag-TNC-CD70 is captured by an anti-Flag mAb and binding of the Fabs is detected using an anti-myc-HRP mAb, which recognizes the MYC tag fused to the C-terminus of the Fd fragment. For comparison purposes, known monoclonal antibodies to CD70 (SGN70 described in US 2010/0129362 A1, clone 1F6; and MDX69A7 described in WO2008/074004 FIGS. 5A and 5B) were tested in parallel. […] Of interest is clone 59D10, which as Fab has no blocking activity, but when converted into a chimeric IgG was antagonistic (see Table 3). Amino acid sequences of the VH and VL domains of binding and blocking llama-derived Fab clones are shown elsewhere herein (Tables 6-9).
# [2] = target: T1, recombinant human CD70 (Flag-TNC-CD70); test: Biacore; recombinant human CD70 on CM5 chip; Fab injected
# Experimental: Off-rates of the purified llama-derived anti-CD70 blocking Fabs were determined using the Biacore. Recombinant human CD70 was immobilized on a CM5 Biacore chip. The immobilization was performed in accordance with a method provided by Biacore and by using the NHS/EDC kit (Biacore AB): after activation of the chip, a solution of 50 μg/ml of recombinant CD70 in 10 mM acetate buffer with pH of 5 was prepared and 1 μl of this solution (50ng) was injected resulting in a surface density of approximately 1000 RU.
# Fabs for the CD70 mAbs ARGX-110, MDX2H5 and SGN70 were prepared by […] digestion (SGN70 and MDX69A7 are described elsewhere herein, MDX2H5, also referred to as MDX1411, is described in WO2008/074004 FIGS. 1A and 1B). Fabs, at a concentration of approximately 100-400 μg/ml, were diluted 6-fold in hepes-buffered saline (0.1M Hepes, 1.5M NaCl, 30 mM EDTA, 0.5% v/v surfactant P20). They were injected (30 μl) and passed through the flow cells at a flow rate of 30 μl/min. After binding of the Fab to CD70, the off-rate was monitored for a period of 10 minutes. After the dissociation, the flow cell surfaces were regenerated by injecting 5 μl of 10 mM NaOH. Sometimes multiple injections of NaOH were needed to regenerate the surfaces depending on the affinity of the Fabs. Off-rate analysis was done by applying the BIAevaluation software. First, the sensogram of the blank runs were subtracted from those obtained with the coated flow cell. […] Moreover, the off-rate of CD27 for CD70 was determined as well.
# [3] = target: T1, recombinant human CD70 (Flag-TNC-CD70); test: inhibition ELISA: Flag-TNC-CD70 captured by anti-Flag mAb, Fab titrated, remaining binding of CD27-Fc detected
# Experimental: as §1
# [4] = target: T3, rhesus recombinant CD70 (FLAG-TNC-rhesus CD70) (rhesus); test: Biacore; rhesus recombinant CD70 on chip; Fab injected
# T3 construct: also called rhesus Flag-TNC-CD70
# [5] = target: T1, recombinant human CD70 (Flag-TNC-CD70); test: Biacore; CD70 coated CM5 chip; Fab in periplasmic fraction
# Experimental: Phage eluted from rounds 3, 4 and 5 of selection were transfected into TG1 and plated clonally; individual clones were picked randomly for further analysis. Periplasmic fractions containing Fabs were prepared from IPTG induced small scale cultures the off rate of each Fab was determined using a CD70 coated CM5 chip in a Biacore binding assay. Clones with Fab having off rates similar to that of 27B3 were sequenced.
# [6] = target: T2, human CD70 expressed on the surface of …; test: cell-based or functional assay
binder,measurement,setting,value
"24B6 chimeric llama-human mAb (antibody, human IgG1, V domains shown) VH: EVQLQESGGGVVQPGGSLRLSCAASGFTFDDYAMSWVRQAPGKGLEWVSSIYMYDSSTYYADSVKGRFTISTDNAKNTVYLQMNSLKSEDTAVYYCAKDINRSYGSSWSHFGPIFSSWGQGTQVTVSS VL: QPVLTQPSAVSVSLGQTARITCQGGYYTHWYQQKPGQAPVLVIYINNNRPSGIPERFSGSISGNTATLTISGAQVEDEADYYCQSGSSSTIPVFGGGTKLTVLG",IC50,[1],0.42 µg/mL
"24B6 Fab (Fab, V domains shown, Llama-derived Fab) VH: EVQLQESGGGVVQPGGSLRLSCAASGFTFDDYAMSWVRQAPGKGLEWVSSIYMYDSSTYYADSVKGRFTISTDNAKNTVYLQMNSLKSEDTAVYYCAKDINRSYGSSWSHFGPIFSSWGQGTQVTVSS VL: QPVLTQPSAVSVSLGQTARITCQGGYYTHWYQQKPGQAPVLVIYINNNRPSGIPERFSGSISGNTATLTISGAQVEDEADYYCQSGSSSTIPVFGGGTKLTVLG",koff,[2],0.0001 s⁻¹
same,IC50 (read off the curve),[3],~0.04 µg/mL
"19G10 Fab (Fab, V domains shown, Llama-derived Fab) VH: EVQLQESGGGVVQPGGSLRLSCAASGFTFDDYAMSWVRQAPGKGLEWVSSIYMYDSSTYYADSVKGRFTISTDNAKNTVYLQMNSLKSEDTAVYYCAKDINRSYGSSWSHFGPIFSSWGQGTQVTVSS VL: NFMLTQPSAVSVSLGQTARITCQGGYYTHWYQQKPGQAPVLVIYVNNNRPSGIPERFSGSSSGNTATLTISGAQAEDEAAYYCQSGSSSTIPVFGGGTKLTVLG",koff,[2],8e-05 s⁻¹
same,IC50 (read off the curve),[3],~0.04 µg/mL
"1C2 Fab (Fab, V domains shown, Llama-derived Fab) VH: ELQVVESGGGLVQPGGSLRLSCAASGFTLSNYWMHWVRQAPRKGLEWVSTISTDNSRTYYADSVKGRFTISRDHAKNTLILQMNSLKSEDTAVYYCIRGSDYEHWGQGTQVTVSS VL: QTVVTQEPSLSVSPGGTVTLTCGLSSGSVTTTNYPGWFQQTPGQAPRTLIYSTSSRHSGVPSRFSGSISGNKAALTITGAQPEDEADYYCALEEIGSYTYMFGGGTHLTVLG",koff,[4],0.00032 s⁻¹
"41H8 Fab (Fab, V domains shown, Germlined 27B3 Fab, periplasmic fraction) VH: EVQLVESGGGLVQPGGSLRLSCAASGFTFSVYYMNWVRQAPGKGLEWVSDINNEGGTTYYADSVKGRFTISRDNSKNTLYLQMNSLRAEDTAVYYCARDAGYSNHVPIFDSWGQGTQVTVAS VL: QAVVTQEPSFSVSPGGTVTLTCGLTSGSVTSTNFPTWYQQTPGQAPRLLIYNTNSRHSGVPDRFSGSILGNKAALTITGAQPEDESDYFCALFISNPSVEFGGGTQLTVLG",koff,[5],0.00022 s⁻¹
"53G1 Fab (Fab, V domains shown, Germlined 27B3 Fab, periplasmic fraction) VH: EVQLVESGGGLVQPGGSLRLSCAASGFTFSVYYMNWVRQAPGKGLEWVSDINNEGGTTYYADSVKGRFTISRDNAKNTLYLQMNSLKPEDTAVYYCVRDAGYSNHVPIFDSWGQGTTVIVSS VL: QTVVTQEPSFSVSPGGTVTLTCGLTSGSVTSTNFPTWYQQTPGQAPRLLIYNTNSRHSGVPSRFSGSILGNKAALTITGAQADDESDYFCALFISNPSVEFGGGTQLTVLG",koff,[5],0.0002 s⁻¹
"24F2 Fab (Fab, V domains shown, Llama-derived Fab) VH: EVQLVESGGGLVQPGGSLRLSCAASGFTFSVYYMNWVRQAPGKGLEWVSDINNEGGTTYYADSVKGRFTISRDNAKNTLTLQMNSLKPEDTALYYCVRDAGYSNHVPIFDSWGQGTQVIVAS VL: QSALTQPSAVSVSLGQTARITCRGDTLRNYHANWYRQKPGQAPVLVIYGDDIRPSGIPERFSGSRLGGTATLTVSGAQAEDEADYYCQSSDSSGYRVVFGGGTKLTVLG",koff,[2],0.00016 s⁻¹
same,IC50 (read off the curve),[3],~0.04 µg/mL
"39D5 Fab (Fab, V domains shown, Germlined 27B3 Fab, periplasmic fraction) VH: EVQLVESGGGLVQPGGSLRLSCAASGFTFSGYYMNWVRQAPGKGLEWVSDINNEGGTTYYADSVKGRFTISRDNAKNTLYLQMNSLRAEDTAVYYCVRDAGYSNHVPIFDSWGQGTTVTVAS VL: QTVVTQEPSLTVSPGGTVTLTCGVTSGSVTSDNFPTWYQQTPGQAPRLLIYNTNTRHSGVPDRFSGSILGNKAALTITGAQPEDESDYYCALFISNPSVEFGGGTQLTVLG",koff,[5],0.00012 s⁻¹
"53F1 Fab (Fab, V domains shown, Germlined 27B3 Fab, periplasmic fraction) VH: EVQLVESGGGLVQPGGSLRLSCAASGFTFSVYYMNWVRQAPGKGLEWVSDINNEGGTTYYADSVKGRFTISRDNAKNTLTLQMNSLKPEDTAVYYCVRDAGYSNHVPIFDSWGQGTQVTVAS VL: QAVVTQEPSFSVSPGGTVTLTCGLKSGSVTSDNFPTWYQQTPGQAPRLLIYNTNTRHSGVPDRFSGSILGNKAALTITGAQADDESDYFCALFISNPSVEFGGGTQLTVLG",koff,[5],0.00023 s⁻¹
"42D12 Fab (Fab, V domains shown, Germlined 27B3 Fab, periplasmic fraction) VH: EVQLVESGGGLVQPGGSLRLSCAASGFTFSVYYMNWVRQAPGKGLEWVSDINNEGGTTYYADSVKGRFTISRDNSKNTLYLQMNSLRAEDTAVYYCVRDAGYSNHVPIFDSWGQGTQVTVSS VL: QAVVTQEPSFSVSPGGTVTLTCGLTSGSVTSTNFPTWYQQTPGQAPRLLIYNTNTRHSGVPSRFSGSILGNKAALTITGAQADDEAEYFCALFISNPSVEFGGGTQLTVLG",koff,[5],0.00016 s⁻¹
"9B2 chimeric llama-human mAb (antibody, human IgG1, V domains shown) VH: QLQVVESGGGLMQPGGSLRLSCAASGFTFSGSAMSWVRQAPGKGLEWVSSIYSHSMYTYYADSVKSRFTISTDNAKNTLYLQMNSLKPDDTAVYYCAASSDYEGLFVSWGQGTQVTVSS VL: QAVLTQPPSLSASPGSSVRLTCTLNSANSVGSYDISWYQQKAGSPPRYLLYYYSDSLSHQGSGVPSRFSGSTDASANAGLLLISGLQPEDEADYYCSAYNRGSHVFGGGTKLTVLG","IC50 (ng/ml), IL-8 secretion in Raji / HT1080-CD27 co-culture assay",[6],213 ng/mL
same,IC50,[1],0.126 µg/mL
"5B2 chimeric llama-human mAb (antibody, human IgG1, V domains shown) VH: QVQLVESGGDLVQPGGSLRLSCAASGFTVSNPAMSWVRQAPGKGLEWVSEITNYGYNRYYADSVKGRFTISTDNAKNTLYLQMNSLRSEDSAVYYCTASLGLEYGYGDWGQGTQVTVSS VL: QSALTQPPSVSGTLGKTLTISCAGTSSDVGYGNYVSWYQQLPGTAPKLLIYRVSTRASGMPDRFSGSKSGNTASLTISGLQSEDEADYYCASYTTNNKPVFGGGTHLTVLG","IC50 (ng/ml), IL-8 secretion in Raji / HT1080-CD27 co-culture assay",[6],19 ng/mL
same,IC50,[1],0.092 µg/mL
"5B2 (Fab, V domains shown, also called 5B2 Fab) VH: QVQLVESGGDLVQPGGSLRLSCAASGFTVSNPAMSWVRQAPGKGLEWVSEITNYGYNRYYADSVKGRFTISTDNAKNTLYLQMNSLRSEDSAVYYCTASLGLEYGYGDWGQGTQVTVSS VL: QSALTQPPSVSGTLGKTLTISCAGTSSDVGYGNYVSWYQQLPGTAPKLLIYRVSTRASGMPDRFSGSKSGNTASLTISGLQSEDEADYYCASYTTNNKPVFGGGTHLTVLG",IC50 (read off the curve),[3],~2 nM
